Data: the DeepSol protein solubility set

assay: soluble on expression in E. coli; label from the status in PepcDB or PDB records

Soluble on expression in E. coli, not soluble:
MGSDKIHHHHHHMQKESIYGLTREQLVDWFLAHGEKKFRATQVWEWLYTKRVASFSEMSNISKSLMTLLEENFSLNPLKQVIVQEAQDGTVKYLFELPDKNMIETVLMRQEYGLSVCVTTQVGCNIGCTFCASGLLKKQRDLTAGEIVAQIMWVQHYFDERGLDERVSHVVVMGIGEPFDNYANVMNFLRTINDDKGLAIGARHITVSTSGLVPKIREFADSGLQVNLAISLHAPNNEVRTSIMRINRSFPIEKLMAAIDEYIEKTNRRVTFEYIMLSQVNDRPEHAQQLADLLRNKKKLSYVNLIPYNPVSEHDQYSRSSKEAVLKFYDVLKKNGINCVIRKEHGTDIDAACGQLRSKQMKKEKVKNQ
MGSDKIHHHHHHMQKLMHCSIMDLRLLVAVADAGNMSKGGAVCFLAPSTASLRIKHLEAIVGTRLFRREARGVSLTRAGQIMVDHSRRCLTEIEQMQASLTPFSEDVHAQLVLYANSSAIASFLPGDLQGFLQSHPKARITLEEHLSRDVLVAVVEGRADIGILTKDEPHPDLVYFPYHEDEIVLLLAETQPWTKTEPVAFLDCLSFPFVSQQNGSAIHSFLLAKASEQGRRVDVRIQVAGFAAVASMVRSGVGVAIVPRSALAAINVEGLRVVALSDAWARRTLSLCVRRDVLGSRNYVTALVDVLRQSGDQAGVADSA
MGSDKIHHHHHHMQKLVEQVWDYTKHAKFYSYRPNYAPKTIDMLISLVGKKDIKVADIGAGTGNLSIMLLERGCKVVSVEPNDAMREIGIERTKDQKIDWVRATGLNSTLQNSEFDWVTFGSSFNVMDRNEALEEAHRLLKSEGYFSCMWNHRDLNDPVQKIAEDTIVEFVPNYTRGTRREDQRPIIESRKDLFDNIVYIEEDFYFHQSIENYINAWKSVKNPYWDLETDEGNELFNKISNKISQRLPKEFSIKYTTRCWSAKKI
MGSDKIHHHHHHMQKRNELPGHLAVAPFTLDSARASGVSRARLRRKDVVHVGRGLYRPSDWNFELEAAARALSTASPGAWISHVTAARLHCQLLPPWLADSTELHLSKPRALPSVRRSGVIGHTVVALEDEIESIDGLRVSTRSRTWLDLARRLPVSDLVCMGDQLIRVPRVAFEGRTRPYDTLDGLRTLVGRHPNLQGVVRAREALHLMRVGADSAPESLLRLAMADAGLPEPELQLALRPTDAVSPTADLGYRHRRLAIQYDGEHHLLDAQIFSDRRRDKAFESAGWTVLILGKDDLADGCRPAVSKIKRLLRTAWLDHPQASGFADAG
MGSDKIHHHHHHMQNPRRICVADPNHRLSQKRFTRNSRDIFICPDCGCIMADVDFDHDQYESGDYYTMQHKTVQSIEEVWGFRWRYILDQILKINGRSSLLDVGAGNGYFVALASREFSFDASGLEISQEEVQFAADVLNIGLIREDLTQHNLDYDVVTCLNVLEHVVDPQLFLSHLVNRVKPGGLLVITTPNPACIHRKVKGLKNWNMIAPPHHINLFTKESLYILLMRYGLIQLDYQTISTYVNFVRGFDTENLLLRRLFFNLLKIFDLGADHFFIVKKPSQC
MGSDKIHHHHHHMQPLAFRMRPRTIEEIVGQQHLVGPGKIIDRMVKAKLLSSMILYGPPGTGKTSIASAISGSTKYAFRILNAATDSKKDLQIVAEEAKMSGTVILLLDEIHRLDKTKQDFLLPHLENGNIILIGATTENPYININPAIRSRTQIFEVKPLQPDEIKKAVLAAIKDSSRGLGELPIVIDEDALKFVSESTNGDLRSALNAVELAARSTGPDENQKIHLTLAILEECLQKRALTQDKDGDAHYDVISAFQKSIRGSDTDAALHYMARLLESGDLQSVIRRLLIIAYEDIGLANPPACQRTVSAVTAAEHVGLPEARIPLADAVIELCVSPKSNSGISAIDNALTDVRTGKIGEVPDHLRDSHYKGAAALGRGVDYKYPHNYPNDWIAQQYLPDKLVDAAYFDAKGNSTYEEKIKNRYESLKKSQRSNH
MGSDKIHHHHHHMQPNPTLDQLQIFVAVADSGSFSAAGRKLNRAQSVISYGIANLEAQLGLKLFEREGTREPQLTEIGRSMLEDARRMIGVLQRMRSRVDGHHHGLEAEVALSVDAALPSPVLVRVLKAFEAQFPTVMLRLHIGSLGLIPDHVVSGQADLGIGGLLGDVDVHLVRIGFMSIVLAAAPSHPLALLPKPLAIEDVREHTQLVVTDQSERTKGRDFGVFAYRTWRLTDMRTKHMLMREGLGWGGLPRWLIADDLVNGRLVELDLEPFSEVKSPMFAMHRNDSSPKPAAAWLIERFKRGLGCFNEFEPGEVPEDEPETIRQSAP
MGSDKIHHHHHHMQRSPIRRSNYTPRNEKGLEGVIELQLNVVSDYLHVGSGKYDVEVMRSVSDVKRLVEDYLSGGNKRIPNNVDQYFSMVAFLMVRNKDNVVIPGSTIKGMVRSRLELSVPGSCYIVTGHSTSSSAVYKRIFNPDPNRGSDRFDVNKFPQVCPVCDLLGNMGLASRVSLSDFVMTSGKVDYVNVKGRDYEVVTKGSIFAGKVLYKSLKPVEIGMLLYGFGFVKDCNGSKVMLLGRFKFSDKRFGRVKFSLKTPIADCNKLVSDFVKQFNPRYINEEW
MGSDKIHHHHHHMQRVRQICVVGGSGFVGSALVHRLSTAGYDVKVLTRRRESSKHLILLPNVQVTECDVFNEASLSGQLHGQDAVINLAGILHESGNATFESIHVDLATRIADICCKQGVPRLLHMSALKASADAKSAYLRSKAAGEQAVLRRADELQVTVFRPSVIFGRGDHFLSMLANVVNMMPVVAVAKPNAKFQPIWVEDVAYVFLTALENVSTYGRSIDLGGPQVYTLKQLIELTALLLGKKRRIVSLNDKLSYYQAYALELMPFKLMTRDNLLSMEVDSVCDGPISEFFGHSLASLEAIAPEYIAGETPRSAYERFRSLAGRTFSRR
MGSDKIHHHHHHMQSKIAEAIKLGNQPVAVMRSDAKPEGAMQFKEGRWGCAISLLNMAAKGQVAVFANSTTTCSGGKVGLGFRQFELGFIEHFLSVGGVGGREGEFYKKNPELAGKFALELPKVTAKEYIIFKPLSELKADETPEGIIFLANADQISALTVLANYDRPTQDNVKVNFGAGCHQTVLFTLDQVDKDEDHCFIGLTDPSARKFIDKDILSFSMTYKRFLELEEQVEESFLTKETWLKVAERI
MGSDKIHHHHHHMQTFHELEQTQSVIATILRNSLQTNRINHAYIFTGDYEPLLLEAAQLFAKSLFCERRDQIEPCQTCRSCRRMDSGNLVDYYQIEPDGATIKKEQIQELMHDLSLRGLEGDRQIYVVTQSHKMTPQAANSLLKFFEEPGAGKVAILITNQPQLLLPTIRSRGQLLSFRPADRLLIGQVLSEKTGRDNELTQLAARVYPKIEDAEQALVEDWFVNARVSVLQLMEELANRPADLPLFVQEKWMSQFKNRQDARIGLELVTCFFEDVLHLKLNPSWETITYANSRPLLEQMGGKSQTTITRWLQAVLAAVKRIEANVNPQLTVERLMFDLQKG
MGSDKIHHHHHHMQWDVIVVGGGPSGLTMAAELAGSGVRTLVLERRTDGVQSRAGTIMPRVLELLDARGIAHRFIEKTRAISNYPFRPSHIWAGFHPINWKYLESRFGFTLGLPQNHTEEILGAWAAECGAEIRTGMEVLDVRQSDDAVEIDVLDVAGTVATLHARYAVGADGGRSVVRNRLGLPFEGHSGTFRGIVIDAELHAPWPGGRVNVDNEMGWVRGYVFGDGVTRFNIVHRDRRHAPKDEPVTLEEALQCIRDVHGTDYGIRAFRWASRFDDQMRMVSSLRKGRVFLVGESARIHYPASGVGMNFCLQDAFNLGWKLANVINGVADPSTLDTYDAERLPVMHALLESVKAQCALQFNFEPDAVALKRRMQEHIIPLPDVQRKLVLELSGLEAPYPRAPSSHSLTGQRCPDLDLLLPDGSAVAVTQTLRERRFVLLDLEGFSRQFAALNLSGWPVTVLAARAARIPASMEGVKALLLRPDGYVAWAATDVAQAAEAEAQLAKWLKR
MGSDKIHHHHHHMREDFLSREEVDALLRGVSSGSTTSEQSTANPGFRPYNLATQERIVRGRMPTLEIINERFARLLRLGLFNFMRRSANVTAGPVRVMKFSEFVRNLAAPSNLNLVHIKPLRGTSLFVFDPTLVFLVVDNLFGGDGRFLPKTEGRDFTQTEQRIIQRLLNLVFDSYGKSWHPVYPIEFEYLRAETNTQFANVATPNEVVVATTFEVNFGSVVGEMHICMPYSILEPIRDLLSSTLQGEALEVDKRWVGRLSKQVQSAEVTLLANLTHAQVRLDQILNMKVGDVIPLDIPEFVTASVDGVPVMECKYGISNGRYALRMEKMLASGNSNE
MGSDKIHHHHHHMRGKILIFLHAHLPYVHHPEYDHFLEERWLFEAITETYIPLLMMFDEIEDFRLTMSITPPLMEMLSSRDLQEKYERHMEKLIELANKEVERTKKEHPLKHKMAKFYREHFEKILNVFRSYDGNILEGFKKYQETGKLEIVTCNATHAFLPLYQMYPEVVNAQITVGVKNYAKHMTLHPRGIWLAECGYYQGLDLYLAQNNVEYFFVDSHAFWFADEQPRYGVYRPIMTPSGVFAFARDPESSEQVWSAAVGYPGDPRYREFYRDIGFDREMEYIKDYIDPSGVRINTGIKYHRITSKSLDASQKEYYDIDLAMEAVEEHARDFLHKKESQARRLMDIMGVEPVIVAPFDAELFGHWWFEGVFFLKRFFELVNESKDLKLVTASEVIDTLEEVQIATPADSSWGAGGYYETWLNGTNDWIYRHLHEMIERMIDLSKKYYNSSDPLVERVLNQMLRELFLAQSSDWAFIMTTRTSVQYAENRTKLHIKRFLNLYDQLVSGRIDEEMLRYYEWTDAIFPEINFRVMARDVI
MGSDKIHHHHHHMRIAIVHYWLVGMRGGEKVIEALCRMYPQADIFTHVVAPERLSSMLAARHIRTSFIQRLPGSVRHYQKYLPLMPLALEQFDLRDYDLVISSESGPAKGVLTRADTAHVCYCHSPMRYLWDFQQDYLDNASPLMRPFMRIFFHYLRQWDVASSQRVDRFVANSRNVARRITKHWRREATVVHPPVECDLFTQAPDVADLPDDEVADIVRQGGYYLCLGQLVGYKRVDIAIEACRKAGRRLVVVGDGEQRAMLERNAPEGVTFLGWRTQDEIRALYAGCRALLFPGEEDFGIVPVECMASGRPVIAYGKGGALETVLDGETGVLFHEQTATACHDAIMRHERMERDFVPDSLRRHARTFDTSVFERKFRREVEAALHAVRG
MGSDKIHHHHHHMRIAVIGGGASGMVTAYLLDKQGHHITVFERQPMLGGHIRTLNKNVKPNQSDCNEMLESGVLEFPTVFHNFVALMQELGVELEPIRVGSALFPKDGSPFFSKVTNENNYTGIQRFIEYLRFDTIHTRSLGLWLKTRFAQMEDFYNRPLSQYVNNQSISNTWLKLLTMYSYSMPFELIDNFPAEMGIPMLRDYLAVKWLRIKGGVYSYIEKILERFQGEVLLNVEIVNISRSPDGVIIQRSHGEIQEFDKVVFATPPDQVIALLADPTEAEIKRFSDWKANYATTTIHTDIFMYDHHHIHHPSEFDFFQTDTQWGYNSCLNQLCGISSPQHYFLSFQLEELIAKDRIIHTQEHHTPLYTTESFRYRDEVVATNGENNTYYAGAYLGDGLHEGAIASAFRVAQLIGSPLAVSISGFNDRNADTVEIAADTAGIGKYLTHPRFHRS
MGSDKIHHHHHHMRIIILSSSTNRSGGTRQAFYQARELATRGHHVSLCLPEDSQMHGMGYDDLIVTLPADRKRWKASIEALFAADGPTVVHAFHNRAVKFVAWHGMFWRHRGVVCCAHRGVMYRPGNPLPYISPGMDAFIANSQACARVLRLFTPAGKLFVVYNGVDDARVTPRTPADTAREQVGLPPRGAEAAWSSSSPAPLVFGFVGQNSPVKGADILIDAFARADVGEARLLMVGVSHDMWRPRCEALGIADRVHLVPHTESVSDMLQLMDAFVLPSRTESLPNTMLEAIRMGLPVIGSAVGGVPELVRGNGLLFPAGDIDALAAALGRMASDHATREAWAAASHAEGERYTIHARVDALEDIYAQLLRRRGLHTA
